# Target: IL-4 receptor alpha (IL-4Ra) (UniProt P24394)
# Assay: cell-based or functional assay
# Sequence of IL-4 receptor alpha (IL-4Ra) (P24394 26-825 limits assumed): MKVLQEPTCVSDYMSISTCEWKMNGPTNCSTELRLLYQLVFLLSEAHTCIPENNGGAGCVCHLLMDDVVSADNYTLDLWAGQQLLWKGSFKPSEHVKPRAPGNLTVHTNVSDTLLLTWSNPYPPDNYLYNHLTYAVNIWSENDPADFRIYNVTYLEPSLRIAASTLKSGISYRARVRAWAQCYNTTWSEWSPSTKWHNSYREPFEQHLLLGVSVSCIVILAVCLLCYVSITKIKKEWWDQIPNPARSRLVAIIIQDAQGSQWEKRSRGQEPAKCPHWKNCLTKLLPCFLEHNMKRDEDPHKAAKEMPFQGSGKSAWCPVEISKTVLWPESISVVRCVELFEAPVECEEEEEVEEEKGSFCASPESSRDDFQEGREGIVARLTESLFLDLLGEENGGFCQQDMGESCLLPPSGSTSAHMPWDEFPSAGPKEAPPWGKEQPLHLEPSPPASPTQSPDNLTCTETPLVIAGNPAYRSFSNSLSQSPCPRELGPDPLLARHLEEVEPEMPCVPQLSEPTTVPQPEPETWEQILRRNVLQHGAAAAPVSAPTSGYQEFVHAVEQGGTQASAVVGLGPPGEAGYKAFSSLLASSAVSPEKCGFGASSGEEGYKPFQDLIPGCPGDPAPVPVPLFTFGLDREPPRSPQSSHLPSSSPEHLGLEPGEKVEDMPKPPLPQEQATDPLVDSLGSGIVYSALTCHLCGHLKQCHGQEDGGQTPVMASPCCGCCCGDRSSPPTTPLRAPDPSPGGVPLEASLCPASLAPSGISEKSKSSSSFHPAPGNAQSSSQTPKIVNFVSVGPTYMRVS
row,Substance,"Conc needed for 50% growth (TF1.8 Bioassay), average"
1,IL-4 double mutant K77A/R53A (from UniProt P05112 25-153) (ligand),11.3 ng/mL
2,IL-4 mutant E9A (from UniProt P05112 25-153) (ligand),76.1 ng/mL
3,IL-4 mutant K12A (from UniProt P05112 25-153) (ligand),0.6 ng/mL
4,IL-4 mutant K21A (from UniProt P05112 25-153) (ligand),1.36 ng/mL
5,IL-4 mutant K77A (from UniProt P05112 25-153) (ligand),1.55 ng/mL
6,IL-4 mutant R53A (from UniProt P05112 25-153) (ligand),9.39 ng/mL
7,IL-4 mutant R75A (from UniProt P05112 25-153) (ligand),0.63 ng/mL
8,IL-4 mutant R81A (from UniProt P05112 25-153) (ligand),4.85 ng/mL
9,IL-4 mutant R88V (from UniProt P05112 25-153) (ligand),415 ng/mL

# Further lines, results first:
row,"Conc needed for 50% growth (TF1.8 Bioassay), average",Substance
1,1.69 ng/mL,IL-4 double mutant K77A/K84A (from UniProt P05112 25-153) (ligand)
2,1.65 ng/mL,IL-4 double mutant K77A/R81A (from UniProt P05112 25-153) (ligand)
3,0.67 ng/mL,IL-4 mutant K42A (from UniProt P05112 25-153) (ligand)
4,2.95 ng/mL,IL-4 mutant K84A (from UniProt P05112 25-153) (ligand)
5,0.71 ng/mL,IL-4 mutant R85A (from UniProt P05112 25-153) (ligand)
